Measured values published in patent US20150335768A1 (CURATORS OF THE UNIVERSITY OF MISSOURI, published 2015).
Ends that are not written are not given here.

T1: bovine asialofetuin (bovine, UniProt P12763 19-359, desialylated glycoprotein)
T1 construct: Control protein spotted on nitrocellulose; also called ASF; AF
T1 sequence (looked up): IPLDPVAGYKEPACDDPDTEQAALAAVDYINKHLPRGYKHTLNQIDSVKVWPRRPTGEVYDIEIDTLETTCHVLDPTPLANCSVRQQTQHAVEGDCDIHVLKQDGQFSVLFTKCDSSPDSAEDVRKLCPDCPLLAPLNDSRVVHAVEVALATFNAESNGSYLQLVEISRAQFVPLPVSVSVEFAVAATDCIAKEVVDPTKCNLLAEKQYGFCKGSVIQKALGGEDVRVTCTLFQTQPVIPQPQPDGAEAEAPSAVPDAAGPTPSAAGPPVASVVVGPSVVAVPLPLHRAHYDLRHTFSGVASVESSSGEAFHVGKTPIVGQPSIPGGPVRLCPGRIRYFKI

B1: synthetic p6.1 peptide KCCYSL (peptide)
peptide: KCCYSL
modifications: not fully specified (bridges); also: present as oxidized and reduced monomer
notes: Chemically synthesized, not biotinylated; used in the fluorescence titration
B2: phage-displayed p6.2 peptide WYAWML (peptide)
chain: WYAWML
notes: Only seen as phage clone; not synthesized; not shown: minor coat protein pIII of the fUSE5 (M13/fd type) bacteriophage vector; peptide inserted near the N-terminus of mature
B3: biotinylated synthetic p6.1 peptide (peptide)
peptide: KCCYSL
modifications: cysteine pairing not given here; also: biotin label, position not given here
notes: Biotinylated analog of KCCYSL used in immunoblot, ELISA and cell staining; also called biotinylated p6.1
B4: phage-displayed p6.1 peptide KCCYSL (peptide)
chain: KCCYSL
modifications: also: C2-C3 disulfide in the oxidized monomer fraction
notes: Insert of the phage clones selected from the 6-mer library F3-6; not shown: minor coat protein pIII of the fUSE5 (M13/fd type) bacteriophage vector; peptide inserted near the N-terminus of mature
B5: phage-displayed p6.3 peptide WYSWLL (peptide)
chain: WYSWLL
notes: as for B2

Tests used:
[1] = target: T2, recombinant extracellular domain of human ErbB-2 tagged with the FLAG epitope (human, UniProt P04626 23-652); test: quenching of intrinsic tryptophan fluorescence of soluble ErbB-2-ECD titrated with peptide, 1:1 model, global fit of three protein concentrations
T2 construct: extracellular domain; Expressed in HEK-293 cells, purified on anti-FLAG M2; Biotinylated for biopanning; also called ErbB-2-ECD; ErbB2-ECD
Procedure: The titrations were performed at 25° C. with varying amounts of peptide added to a fixed ErbB-2-ECD concentration (200-600 nM) in 2 ml of phosphate buffered saline (pH=7.4). Each measurement was collected for 5-20 sec after 1-2 min pre-equilibration. The excitation shutter remained closed during pre-equilibration of the sample and was opened only during data acquisition in order to minimize photobleaching of the sample. The fluorescence measurements were corrected for dilutions and photobleaching of ErbB-2-ECD. Values reported are an average of three independent measurements. […] The fitting procedure was performed using Origin (Microcal Software Inc).
Intrinsic tryptophan fluorescence of the protein was monitored as a function of peptide concentration. […] In the analysis, the inventors assumed a model with the stoichiometric ratio of protein to peptide equal to 1:1. The data were collected at 2 μM, 4 μM and 6 μM concentrations of the protein.

[2] = target: T2, recombinant extracellular domain of …; test: four rounds of phage display affinity selection on biotinylated ErbB-2-ECD held on streptavidin plates
Procedure: Biotinylated antigen was incubated with streptavidin coated plates for 2 hours at 4° C. In first and second round of selection 10 μg of biotinylated antigen per plate was added, in third round amount of antigen was decreased to 1 μg, and for fourth round of selection 0.1 μg of antigen was used. Unoccupied biotin-binding sites were blocked with 0.1 mM biotin. Phage was incubated with antigen for 4 hrs at RT. Plates were washed 10 times with TPBS to remove unbound phage. Bound phage was eluted with elution buffer (0.1 M HCl, pH is adjusted to 2.2 with glycine, 1 mg/ml BSA, 0.1 mg/ml phenol red) at RT during 10 min. […] After each round, except the last, the eluate of the bound phage was propagated and used as input for the next round. Individual clones were characterized by DNA sequencing after the fourth round of selection.
A random 6-amino acid peptide bacteriophage display library was affinity selected against the ErbB-2-ECD to identify novel peptide-ligands.

bovine serum albumin = target: T3, bovine serum albumin (bovine, UniProt P02769 25-607); test: immunoblot (dot blot) on nitrocellulose, streptavidin-alkaline phosphatase
T3 construct: Control protein spotted on nitrocellulose; also called BSA
Procedure: (§1) After washing three times with PBS, the membrane was incubated with 100 μM biotinylated peptide for 2 hrs at RT.

bovine asialofetuin = target: T1, bovine asialofetuin; test: as above
Procedure: as §1

T3 sequence (P02769 25-607 limits assumed): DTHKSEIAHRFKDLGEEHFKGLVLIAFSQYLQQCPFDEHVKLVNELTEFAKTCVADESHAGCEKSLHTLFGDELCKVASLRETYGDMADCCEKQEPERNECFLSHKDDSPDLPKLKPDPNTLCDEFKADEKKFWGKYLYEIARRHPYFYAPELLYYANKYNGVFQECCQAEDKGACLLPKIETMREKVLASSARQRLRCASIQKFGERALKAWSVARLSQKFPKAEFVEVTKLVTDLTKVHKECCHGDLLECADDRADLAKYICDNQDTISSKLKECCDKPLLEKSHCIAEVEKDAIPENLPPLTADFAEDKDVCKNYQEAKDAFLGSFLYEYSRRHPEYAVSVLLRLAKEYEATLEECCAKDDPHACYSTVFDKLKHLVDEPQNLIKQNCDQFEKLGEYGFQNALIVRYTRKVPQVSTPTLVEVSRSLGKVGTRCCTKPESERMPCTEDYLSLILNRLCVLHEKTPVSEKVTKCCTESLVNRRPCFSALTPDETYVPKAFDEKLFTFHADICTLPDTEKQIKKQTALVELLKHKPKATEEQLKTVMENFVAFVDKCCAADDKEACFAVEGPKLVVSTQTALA

Row | Binder | binding result [2] | other results
1 | B1 | – | Kd [1]: 30.2 µM
2 | B2 | binds | –
3 | B3 | – | binding result (bovine serum albumin): no binding; binding result (bovine asialofetuin): no binding
4 | B4 | binds | –
5 | B5 | binds | –
